Measurements published in paper PMC8084935.

Biological target: FITC-labeled McrA peptide (GG-…) (Methanothermobacter sp. CaT2)
Test: fluorescence polarisation

For “MtYcaO (YcaO from Methanothermobacter sp. CaT2), MBP-His tag cut in the assay mixture (enzyme)”, the Kd was 7 µM.
